Data: publication PMC3520743, “Bacillus cereus Fnr binds a [4Fe-4S] cluster and forms a ternary complex with ResD and PlcR” (BMC Microbiology, 2012)

Target: the molecule itself
Assay: SEC + other: SDS-PAGE under non-reducing conditions; analytical gel filtration chromatography and SDS-PAGE without DTT or beta-mercaptoethanol; apparent molecular mass ca. 60,000; dimer

B1: Bacillus cereus Fnr, recombinant tag-less apo-form (natural protein, Bacillus cereus F4430/73, UniProt A4GFD9 1-230, looked up)
chain: MANSMTLSQDLKELLASVEYKMQIKKGSFIFQEGMEATELYIIHSGKVQISKLSADGQELTLRICSAYDIIGELTLFTDNAKYLLNSKCLEDVEVGVIKREALEKELLQKPALVFEFMKWISEHLRRMQTKFRDLVLHGKKGALYSTLIRMTNSYGILKENGILIDLPLTNQELANFCATSRESVNRMLNELKKQGTISIHKGKITIHDLQFLKCEIACEDCSASVCSID
notes: also called apoFnr; tag-less Fnr; source: E. coli BL21 CodonPlus(DE3)-RIL (pET101fnr), aerobically grown, purified (DEAE-cellulose, hydroxyapatite, Superdex 200)
stoichiometry N: 2
